The values that follow come from PMC5627596.

For assay [1], the target named is heterodimeric Fcab Janus448 (one VEGF-binding 448 chain, one Fc-wt chain) (human). Kind of assay: ITC; 200 µM VEGF titrated into 40 µM Janus448 or JanusCT6 in the cell; PBS (pH 7.4), 25°C; one-set-of-sites model. Background: In ITC the heat of successive injections is recorded.
The target of assay [2] is heterodimeric Fcab JanusCT6 (one VEGF-binding CT6 chain, one Fc-wt chain) (human). Described as above.

In assay [1], “vascular endothelial growth factor (VEGF-A), truncated version, residues 14-108 (domain or fragment)” came in with a Kd of 26 nM, a dH of -25 kcal/mol and a stoichiometry N of 0.5. Moreover, in assay [2], the Kd turned out to be 4 nM, the dH was -34 kcal/mol and the stoichiometry N was 0.5.

In general, Kd refers to a measure of binding affinity in units of concentration. Low readings indicate a tighter complex, high ones a looser complex. Usually stoichiometry N stands for the number of molecules, sites or subunits per partner or assembly.
